Test results from patent US20230002480A1.

Tests used:
Test in all cases: cell-based or functional assay
[1] = molecular target: HIV-1 Env of pseudovirus 1006_11_C3_1601 (HIV-1)
[2] = molecular target: HIV-1 Env of pseudovirus 1012_11_TC21_3257 (HIV-1)
[3] = molecular target: HIV-1 Env of pseudovirus 1056_10_TA11_1826 (HIV-1)
[4] = molecular target: HIV-1 Env of pseudovirus 191955_A11 (HIV-1)
[5] = molecular target: HIV-1 Env of pseudovirus 235-47 (HIV-1)
[6] = molecular target: HIV-1 Env of pseudovirus 249M B10 (HIV-1)
[7] = molecular target: HIV-1 Env of pseudovirus 3103.v3.c10 (HIV-1)
[8] = molecular target: HIV-1 Env of pseudovirus 62357_14_D3_4589 (HIV-1)
[9] = molecular target: HIV-1 Env of pseudovirus 6244_13_B5_4576 (HIV-1)
[10] = molecular target: HIV-1 Env of pseudovirus 6540.v4.c1 (HIV-1)
[11] = molecular target: HIV-1 Env of pseudovirus 6545.v4.c1 (HIV-1)
[12] = molecular target: HIV-1 Env of pseudovirus BJOX009000.02.4 (HIV-1)
[13] = molecular target: HIV-1 Env of pseudovirus C1080.c03 (HIV-1)
[14] = molecular target: HIV-1 Env of pseudovirus C3347.c11 (HIV-1)
[15] = molecular target: HIV-1 Env of pseudovirus CAP210.2.00.E8 (HIV-1)
[16] = molecular target: HIV-1 Env of pseudovirus CAP45.2.00.G3 (HIV-1)
[17] = molecular target: HIV-1 Env of pseudovirus CNE21 (HIV-1)
[18] = molecular target: HIV-1 Env of pseudovirus CNE30 (HIV-1)
[19] = molecular target: HIV-1 Env of pseudovirus CNE52 (HIV-1)
[20] = molecular target: HIV-1 Env of pseudovirus CNE53 (HIV-1)
[21] = molecular target: HIV-1 Env of pseudovirus Ce0393_C3 (HIV-1)
[22] = molecular target: HIV-1 Env of pseudovirus Ce1176_A3 (HIV-1)
[23] = molecular target: HIV-1 Env of pseudovirus Ce704809221_1B3 (HIV-1)
[24] = molecular target: HIV-1 Env of pseudovirus HIV-0013095-2.11 (HIV-1)
[25] = molecular target: HIV-1 Env of pseudovirus R1166.c01 (HIV-1)
[26] = molecular target: HIV-1 Env of pseudovirus R2184.c04 (HIV-1)
[27] = molecular target: HIV-1 Env of pseudovirus RHPA4259.7 (HIV-1)
[28] = molecular target: HIV-1 Env of pseudovirus SC05_8C11_2344 (HIV-1)
[29] = molecular target: HIV-1 Env of pseudovirus T251-18 (HIV-1)
[30] = molecular target: HIV-1 Env of pseudovirus T255-34 (HIV-1)
[31] = molecular target: HIV-1 Env of pseudovirus TRJO4551.58 (HIV-1)
[32] = molecular target: HIV-1 Env of pseudovirus TRO.11 (HIV-1)
[33] = molecular target: HIV-1 Env of pseudovirus X1632_S2_B10 (HIV-1)
[34] = molecular target: HIV-1 Env of pseudovirus X2131_C1_B5 (HIV-1)
[35] = molecular target: HIV-1 Env of pseudovirus ZM135M.PL10a (HIV-1)
[36] = molecular target: HIV-1 Env of pseudovirus ZM214M.PL15 (HIV-1)
[37] = molecular target: HIV-1 Env of pseudovirus ZM233M.PB6 (HIV-1)

## PGT121 (antibody)
[1]
  IC50: 0.002 µg/mL
  IC80: 0.007 µg/mL
[2]
  IC50: 0.003 µg/mL
  IC80: 0.017 µg/mL
[3]
  IC50: 0.004 µg/mL
  IC80: 0.081 µg/mL
[4]
  IC50: > 50 µg/mL
  IC80: > 50 µg/mL
[5]
  IC50: 0.137 µg/mL
  IC80: 0.727 µg/mL
[6]
  IC50: > 50 µg/mL
  IC80: > 50 µg/mL
[7]
  IC50: 0.009 µg/mL
  IC80: 0.028 µg/mL
[8]
  IC50: 2.6 µg/mL
  IC80: > 50 µg/mL
[9]
  IC50: 0.061 µg/mL
  IC80: 0.347 µg/mL
[10]
  IC50: > 50 µg/mL
  IC80: > 50 µg/mL
[11]
  IC50: > 50 µg/mL
  IC80: > 50 µg/mL
[12]
  IC50: 2.86 µg/mL
  IC80: 31.7 µg/mL
[13]
  IC50: > 50 µg/mL
  IC80: > 50 µg/mL
[14]
  IC50: > 50 µg/mL
  IC80: > 50 µg/mL
[15]
  IC50: 26.3 µg/mL
  IC80: > 50 µg/mL
[16]
  IC50: 1.63 µg/mL
  IC80: > 50 µg/mL
[17]
  IC50: 0.007 µg/mL
  IC80: 0.035 µg/mL
[18]
  IC50: 0.078 µg/mL
  IC80: 0.291 µg/mL
[19]
  IC50: 2.04 µg/mL
  IC80: 18.9 µg/mL
[20]
  IC50: 0.007 µg/mL
  IC80: 0.024 µg/mL
[21]
  IC50: > 50 µg/mL
  IC80: > 50 µg/mL
[22]
  IC50: 0.013 µg/mL
  IC80: 0.035 µg/mL
[23]
  IC50: 0.025 µg/mL
  IC80: 0.126 µg/mL
[24]
  IC50: > 50 µg/mL
  IC80: > 50 µg/mL
[25]
  IC50: > 50 µg/mL
  IC80: > 50 µg/mL
[26]
  IC50: > 50 µg/mL
  IC80: > 50 µg/mL
[27]
  IC80: 0.035 µg/mL
[28]
  IC50: 0.019 µg/mL
  IC80: 0.071 µg/mL
[29]
  IC50: 29 µg/mL
  IC80: > 50 µg/mL
[30]
  IC50: 18.7 µg/mL
  IC80: > 50 µg/mL
[31]
  IC50: 1.31 µg/mL
  IC80: 37.9 µg/mL
[32]
  IC50: 0.005 µg/mL
  IC80: 0.025 µg/mL
[33]
  IC50: > 50 µg/mL
  IC80: > 50 µg/mL
[34]
  IC50: 0.004 µg/mL
  IC80: 0.023 µg/mL
[35]
  IC50: 0.716 µg/mL
  IC80: 5.25 µg/mL
[36]
  IC50: 0.46 µg/mL
  IC80: 2.04 µg/mL
[37]
  IC50: 3.69 µg/mL

## PGT128 (antibody)
[1]
  IC50: 0.011 µg/mL
  IC80: 0.04 µg/mL
[2]
  IC50: 0.011 µg/mL
  IC80: 0.033 µg/mL
[3]
  IC50: < 0.001 µg/mL
  IC80: 0.008 µg/mL
[4]
  IC50: 14.2 µg/mL
  IC80: > 50 µg/mL
[5]
  IC50, titer in TZM.bl cells: > 50 µg/mL
  IC80, titer in TZM.bl cells: > 50 µg/mL
[6]
  IC50: 7.87 µg/mL
  IC80: > 50 µg/mL
[7]
  IC50, titer in TZM.bl cells: 0.014 µg/mL
  IC80, titer in TZM.bl cells: 0.033 µg/mL
[8]
  IC50: 1.14 µg/mL
  IC80: > 50 µg/mL
[9]
  IC50: 0.02 µg/mL
  IC80: 0.076 µg/mL
[10]
  IC50, titer in TZM.bl cells: 11.8 µg/mL
  IC80, titer in TZM.bl cells: > 50 µg/mL
[11]
  IC50, titer in TZM.bl cells: > 50 µg/mL
  IC80, titer in TZM.bl cells: > 50 µg/mL
[12]
  IC50, titer in TZM.bl cells: < 0.001 µg/mL
  IC80, titer in TZM.bl cells: 0.005 µg/mL
[13]
  IC50, titer in TZM.bl cells: 0.283 µg/mL
  IC80, titer in TZM.bl cells: 2.06 µg/mL
[14]
  IC50, titer in TZM.bl cells: 0.001 µg/mL
  IC80, titer in TZM.bl cells: 0.007 µg/mL
[15]
  IC50: > 50 µg/mL
  IC80: > 50 µg/mL
[16]
  IC50: > 50 µg/mL
  IC80: > 50 µg/mL
[17]
  IC50: 0.01 µg/mL
  IC80: 0.026 µg/mL
[18]
  IC50: 2.06 µg/mL
  IC80: 12.6 µg/mL
[19]
  IC50: > 50 µg/mL
  IC80: > 50 µg/mL
[20]
  IC50: 0.01 µg/mL
  IC80: 0.049 µg/mL
[21]
  IC50: > 50 µg/mL
  IC80: > 50 µg/mL
[22]
  IC50: 0.009 µg/mL
  IC80: 0.026 µg/mL
[23]
  IC50: 0.026 µg/mL
  IC80: 0.072 µg/mL
[24]
  IC50: > 50 µg/mL
  IC80: > 50 µg/mL
[25]
  IC50, titer in TZM.bl cells: > 50 µg/mL
  IC80, titer in TZM.bl cells: > 50 µg/mL
[26]
  IC50, titer in TZM.bl cells: 20.1 µg/mL
  IC80, titer in TZM.bl cells: > 50 µg/mL
[27]
  IC50: 0.026 µg/mL
  IC80: 0.109 µg/mL
[28]
  IC50: 0.017 µg/mL
  IC80: 0.041 µg/mL
[29]
  IC50, titer in TZM.bl cells: > 50 µg/mL
  IC80, titer in TZM.bl cells: > 50 µg/mL
[30]
  IC50, titer in TZM.bl cells: > 50 µg/mL
  IC80, titer in TZM.bl cells: > 50 µg/mL
[31]
  IC50: 0.018 µg/mL
  IC80: 0.041 µg/mL
[32]
  IC50: 0.019 µg/mL
  IC80: 0.045 µg/mL
[33]
  IC50, titer in TZM.bl cells: > 50 µg/mL
  IC80, titer in TZM.bl cells: > 50 µg/mL
[34]
  IC50, titer in TZM.bl cells: > 50 µg/mL
  IC80, titer in TZM.bl cells: > 50 µg/mL
[35]
  IC50: > 50 µg/mL
  IC80: > 50 µg/mL
[36]
  IC50: 1.5 µg/mL
  IC80: 29.4 µg/mL
[37]
  IC50: > 50 µg/mL
  IC80: > 50 µg/mL
